Drawing on publication PMC7948490 (2020), this text covers Kd for two molecules.

Test [1] has as its target T1, F-actin (alpha-actin, skeletal muscle) (Gallus gallus, UniProt P68139). As to the kind of experiment: stopped-flow pyrene-actin fluorescence (k-A/k+A), 20 °C, no nucleotide.
The target of test [2] is T1, F-actin (alpha-actin, skeletal muscle). As to the kind of experiment: kinetic global fit (KinTek Explorer), no nucleotide.
For test [3] the target is unchanged. As to the kind of experiment: kinetic global fit (KinTek Explorer).

B1: Myosin-1C0-ΔTH1 isoform C0 lacking TH1 domain (protein)
chain: MESALTARDRVGVQDFVLLENFTSEAAFIENLRRRFRENLIYTYIGPVLVSVNPYRDLQIYSRQHMERYRGVSFYEVPPHLFAVADTVYRALRTERRDQAVMISGESGAGKTEATKRLLQFYAETCPAPERGGAVRDRLLQSNPVLEAFGNAKTLRNDNSSRFGKYMDVQFDFKGAPVGGHILSYLLEKSRVVHQNHGERNFHIFYQLLEGGEEETLRRLGLERNPQSYLYLVKGQCAKVSSINDKSDWKVVRKALTVIDFTEDEVEDLLSIVASVLHLGNIHFAANEESNAQVTTENQLKYLTRLLSVEGSTLREALTHRKIIAKGEELLSPLNLEQAAYARDALAKAVYSRTFTWLVGKINRSLASKDVESPSWRSTTVLGLLDIYGFEVFQHNSFEQFCINYCNEKLQQLFIELTLKSEQEEYEAEGIAWEPVQYFNNKIICDLVEEKFKGIISILDEECLRPGEATDLTFLEKLEDTVKHHPHFLTHKLADQRTRKSLGRGEFRLLHYAGEVTYSVTGFLDKNNDLLFRNLKETMCSSKNPIMSQCFDRSELSDKKRPETVATQFKMSLLQLVEILQSKEPAYVRCIKPNDAKQPGRFDEVLIRHQVKYLGLLENLRVRRAGFAYRRKYEAFLQRYKSLCPETWPTWAGRPQDGVAVLVRHLGYKPEEYKMGRTKIFIRFPKTLFATEDALEVRRQSLATKIQAAWRGFHWRQKFLRVKRSAICIQSWWRGTLGRRKAAKRKWAAQTIRRLIRGFVLRHAPRCPENAFFLDHVRTSFLLNLRRQLPQNVLDTSWPTPPPALREASELLRELCIKNMVWKYCRSISPEWKQQLQQKAVASEIFKGK
Regarding B1, the Kd (in general, the constant that tells how readily two partners part at equilibrium) came out at 13.7 nM in test [1], 13 nM in test [2] and 10800 nM in test [3].

B2: Myosin-1C35-ΔTH1 isoform C35 lacking TH1 domain (protein)
chain: MALQVELVPTGEIIRVVHPHRPCKLALGSDGVRVTMESALTARDRVGVQDFVLLENFTSEAAFIENLRRRFRENLIYTYIGPVLVSVNPYRDLQIYSRQHMERYRGVSFYEVPPHLFAVADTVYRALRTERRDQAVMISGESGAGKTEATKRLLQFYAETCPAPERGGAVRDRLLQSNPVLEAFGNAKTLRNDNSSRFGKYMDVQFDFKGAPVGGHILSYLLEKSRVVHQNHGERNFHIFYQLLEGGEEETLRRLGLERNPQSYLYLVKGQCAKVSSINDKSDWKVVRKALTVIDFTEDEVEDLLSIVASVLHLGNIHFAANEESNAQVTTENQLKYLTRLLSVEGSTLREALTHRKIIAKGEELLSPLNLEQAAYARDALAKAVYSRTFTWLVGKINRSLASKDVESPSWRSTTVLGLLDIYGFEVFQHNSFEQFCINYCNEKLQQLFIELTLKSEQEEYEAEGIAWEPVQYFNNKIICDLVEEKFKGIISILDEECLRPGEATDLTFLEKLEDTVKHHPHFLTHKLADQRTRKSLGRGEFRLLHYAGEVTYSVTGFLDKNNDLLFRNLKETMCSSKNPIMSQCFDRSELSDKKRPETVATQFKMSLLQLVEILQSKEPAYVRCIKPNDAKQPGRFDEVLIRHQVKYLGLLENLRVRRAGFAYRRKYEAFLQRYKSLCPETWPTWAGRPQDGVAVLVRHLGYKPEEYKMGRTKIFIRFPKTLFATEDALEVRRQSLATKIQAAWRGFHWRQKFLRVKRSAICIQSWWRGTLGRRKAAKRKWAAQTIRRLIRGFVLRHAPRCPENAFFLDHVRTSFLLNLRRQLPQNVLDTSWPTPPPALREASELLRELCIKNMVWKYCRSISPEWKQQLQQKAVASEIFKGK
B2: the equilibrium dissociation constant (Kd) in test [1] is 16.9 nM; in test [2] it was 16.3 nM; in test [3] it was 22200 nM.
